# Laboratory results as given in patent US9872921B2, “DE-N-acetyl sialic acid antigens, antibodies thereto, and methods of use in cancer therapy” (priority 2004, dated 2018).
# B1: SEAM 3: murine anti-N-Pr NmB polysaccharide monoclonal antibody (IgG2b), ATCC Deposit No. HB-12170 (antibody, V domains shown)
# VH: EVKLQESGGGLVQPGDSLSLSCAASGFTFTPYYMGWVRQPPGKALEWLGYIRNKANGYTTEYSASVKGRFTISRDNSQSILYLQMNALRAEDSATYYCARYARGTVDSWGQGTTLTVS
# VL: DIVMTQSPLTLSVTIGQPASISCKSSQSLLHSNGKTYLNWLLQRPGQSPKLLIYLVSKLESGVPDRFSGSGSGTDFTLKISRVEAEDLGLYYCLQIIHFPHTFGAGTKLELKRA
# modifications: mouse
# What was measured:
# normal melanocytes = test: Immunostaining of frozen sections of normal human skin; conditions: frozen unfixed sections, 400× magnification
# Method: To determine whether there is a difference in expression of SEAM 3-reactive antigen between normal melanocytes and melanoma tumor cells, immuno-staining of thin sections of each type of tissue were performed. In addition to SEAM 3, controls included the secondary antibody alone and R24, which binds to the ganglioside GD3 that is expressed in normal melanocytes and is overexpressed in some melanomas (Dippold et al. Proc Natl Acad Sci USA, 1980. 77(10): 6114-8.; Graus, et al., Brain Res, 1984. 324(1): 190-4; Houghton et al. Proc Natl Acad Sci USA, 1985. 82(4):1242-6; Panneerselvam et al. J Immunol, 1986. 136(7): 2534-41; Real et al. Cancer Res, 1985. 45(9): 4401-11; Vadhan-Raj et al. J Clin Oncol, 1988. 6(10): 1636-48; Welt t al. Clin Immunol Immunopathol, 1987. 45(2): 214-29).
# The tissue sections were made from frozen samples of normal skin (HuSkinTb111 in FIG. 39) and two human melanomas (HuMel1151 and HuMel4034). To prevent the possibility of blocking de-N-acetyl antigen or extracting a lipid containing the antigen, the sections were prepared from frozen tissue and were dried onto the slides but not fixed with aldehydes or organic solvents (Chammas et al. Cancer Res, 1999. 59(6): 1337-46). […] Bound antibody was then detected using the DAKO LSAB kit following the manufacturer's directions (Thermo Fisher Scientific, Waltham, Mass.). […]
# human tumors = test: Immunohistochemistry on formalin-fixed paraffin embedded tissue microarrays of human tumors; conditions: primary antibody 1 to 5 μg/ml; 47 human tumors
# Method: Initial immunohistochemical analysis of antigens recognized by SEAM 3 was performed on unfixed tissues out of concern that the de-N-acetyl amino groups could be blocked by reaction with formaldehyde (vide supra). Subsequently, it was determined that the amino group in de-N-acetyl sialic acid is relatively unreactive as a result of its close proximity to the C1 carboxyl group. Therefore, large scale screening of human tumors for the presence of SEAM 3-reactive antigens was performed using formalin-fixed paraffin embedded tissue sections since processing the samples by this method considerably improves the preservation of cell structural features.
# Human tissue microarrays were obtained from US BioMax (Rockville, Md.). The tissue microarrays were deparaffinized in xylene (2 changes, 10 minutes each) then rehydrated by sequential 5 minute washes in 100% ethanol, 95% ethanol, 70% ethanol, 50% ethanol, and PBS buffer. Endogenous peroxidase was blocked by incubation with Peroxidazed 1 solution (Biocare, Concord, Calif.) for 5 minutes at ambient temperature. The sections were blocked with Terminator (Biocare) containing streptavidin then rinsed with PBS buffer. […]
# [1] = tested on: Jurkat T-cell leukemia cells; test: Fluorescence microscopy binding to cells; format: cell-based, human; conditions: without Triton
# Method: After an overnight incubation cells were gently washed with PBS buffer and fixed with ice-cold 1% (v/v) formaldehyde. After 20 minutes cells were washed with PBS before blocking non-specific binding with a solution of 3% goat serum for 1 hour. To observe the presence of SEAM 3-reactive antigen that is present inside the cells, the cells were treated Triton X-100 0.5% w/v in 3% goat serum for 1 hour. The primary antibodies were added and incubated for 2 hours or overnight at 4° C. Cells were gently washed by a series (at least twice) with ice-cold PBS before isotype-specific secondary antibody (produced in goat) conjugated with either Alexa Fluor 488 (immunofluorescence and confocal), Alexa Fluor 546 (confocal) Alexa Fluor 594 (immunofluorescence), Alexa Fluor 633 (confocal) was applied for at least 1 hour at 4° C. in the dark (all secondary antibodies conjugated to fluorophores were obtained from Invitrogen, Carlsbad, Calif.). After another series of gentle washes, a hardening mounting medium containing DAPI was applied.
# Confocal images were obtained using a Zeiss Meta510 CLSM at the Biological Imaging Facility, University of California, Berkeley, Calif. and were analyzed using ImageJ Software (NIH). Control antibodies and secondary antibodies applied alone were routinely used to assess background fluorescence.
# SK-MEL 28 cells [2] = test: Cell viability by ViaCount Reagent flow cytometry; format: cell-based, human
# Method: Cell viability of SK-MEL 28 cells incubated in the presence of SEAM 3 or control mAbs (irrelevant isotype IgG2b or anti-GD3, R24) was determined using ViaCount Reagent (Guava Technologies, Hayward, Calif.), as per manufacturers instructions. […] The viability was analysed using a pre-set program on the Guava EasyCyte flowcytometer. The program has a preset gate for apoptosis and this was routinely incorporated into our studies.
# SK-MEL 28 cells [3] = test: Cell cycle analysis by propidium iodide staining and flow cytometry; format: cell-based, human; conditions: 48 h incubation
# Method: To further assess the affect of SEAM 3 mAb on cell growth, the stage of the cell cycle after treatment with SEAM 3 was determined. In this experiment, the cells were stained with the fluorescent DNA binding dye propidium iodide to characterize cell populations in various stages of the cell cycle and the effects of adding control antibodies, nocodazole (a drug that arrest the cells in mitosis) and SEAM 3.
# Approximately 10^5 SK-MEL 28 cells were plated on a 96-well tissue culture plate and allowed to adhere. After 24 h the medium was replaced with one that had either antibody or drug and incubated for a further 48 h. Cells were spun (to collect any cells that may have detached), and fixed in 70% ice-cold methanol (added drop wise) for at least 30 minutes at 4° C. The cells were washed twice with PBS, and to ensure that only DNA was stained, the fixed cells were treated with ribonuclease I (100 μg/ml, source) for 30 minutes at 37° C. Propidium iodide (50 μg/ml) was added and samples were analyzed using a Guava EasyCyte flow cytometer.
molecule,measurement,setting,value
B1,immunostaining of normal human skin,normal melanocytes,binds to an antigen in neural like structures of the dermis but is not present in melanocytes
same,tumor samples positive for binding,human tumors,38 of 47
same,binding to cell surface by microscopy,[1],fluorescence is uniform over the cell surface
same,number of viable cells compared to irrelevant IgG2b control mAb,"SK-MEL 28 cells [2]; 5 μg/ml, 24 h incubation",significantly decreases the number of viable cells
same,number of apoptotic cells compared to IgG2b control mAb,"SK-MEL 28 cells [2]; 5 μg/ml, 48 h",increases the number of apoptotic
same,number of dead cells compared to IgG2b control mAb,"SK-MEL 28 cells [2]; 5 μg/ml, 48 h",increases
same,number of viable cells compared to IgG2b control mAb,"SK-MEL 28 cells [2]; 5 μg/ml, 48 h",decreases the number of viable cells
same,cytotoxic effect,"SK-MEL 28 cells [2]; SK-MEL-28 melanoma, approximately proportional to level of antigen on cell surface",cytotoxic effect of SEAM 3 was observed
same,effect on cell cycle phase distribution,SK-MEL 28 cells [3],"reduced the proportion of cells in Go, S-phase and G2/M Phase, while increasing the number in pre-Go"
